According to publication PMC3679036:

Tests used:
RhoA [1] = target: RhoA (UniProt Q9QUI0); assay: anti-RhoGDI1 co-IP from cytosolic fraction; conditions: reference: unstimulated acini; sites S96
RhoA [2] = target: RhoA (UniProt Q9QUI0); assay: anti-RhoGDI1 co-IP from acinar lysate; conditions: reference: unstimulated acini; sites S96

Substance | percent of reference (RhoA [1]) | percent of reference (RhoA [2])
RhoGDI1 (endogenous) (from UniProt Q99PT1) CCK 300 pM, 5 min | 42% | 
RhoGDI1 (endogenous) (from UniProt Q99PT1) PMA 500 nM |  | 37%
